Assay results as given in the supplement of paper PMC10567573.

B1: SNX3 (parent)
chain: FLRQLPFRGDDGIFDDNFIEERKQ
B2: WDR41 (parent)
chain: WTMQAYERNFWDPSPQLDTQQEIK

Variants of: B1
Assay: protein stability index of a GFP-peptide fusion (GPS, HEK-293T) (PSI 1-6); higher = more stable
Settings: c terminus: a fixed tail appended
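Also: lentivirally expressed fusions sorted by FACS into six bins by GFP to DsRed ratio, PSI derived from sequencing read proportions per bin multiplied by bin number.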

Protein stability index of substitutions, site by site:
D11: H 3.15, G 4.22, A 4.01, K 3, R 2.46, L 2.71, P 4.1, S 4.12
I13: L 3.26, K 4.7, D 4.24, V 3.3, H 3.67, F 3.03, W 2.72
R8: L 2.95, W 3.08, I 2.67, G 3.79, K 3.69, E 3.94, M 3.1, Y 3.96
G9: R 3.27, K 3.39, I 2.9, A 3.68, W 3.02, H 3.08, S 3.41, P 3.06, V 3.08, D 3.04
E21: T 3.13, D 4.12, R 3.19, L 3.34, G 2.49, N 3.01, F 2.39, H 2.64, C 2.85, W 2.1
R22: P 3, Q 3.27, E 3.73, V 3.12, H 3.19, L 2.87, W 4.24
R3: G 3.1, Q 3.62, C 2.71, Y 2.28, D 3.45, K 3.43, N 3.48
F18: L 3.75, C 4.21, T 3.96, I 3.08, Q 3.94, P 3.62, Y 3.27, A 4.56
F1: A 4.63, C 4.1, V 3.87, Q 4.96, K 4.68, Y 4.18
F7: E 4.77, K 4, S 3.76, H 3.52, V 3.83, W 3.05, L 3.23, P 2.62
Q24: T 2.84, S 2.75, L 2.79, I 3.02, C 2.57, W 2.1, K 4.36
D15: H 3.06, G 3.12, I 2.53, P 3.04
I19: F 3.79, A 4.03, H 2.92, W 3.6, S 3.67, P 4.04, Q 4.12, Y 3.15, T 3.86, D 3.98
Q4: R 2.27, T 3.08, D 4.26, E 3.85, S 2.95, I 2.55, P 1.95, F 2.44
N17: T 3.22, V 2.97, F 2.58, G 4.12
D16: T 3.06, V 3.45, F 2.56, W 2.73, L 2.91
D10: H 3.65, L 2.42, M 3.41, N 2.64, P 3.42, R 3.27, C 3.52, A 3.12, Q 3.56, G 2.76
L5: K 4.01, A 3.1, S 4.01, Q 3.72, F 3.36, Y 2.78, T 3.77
G12: F 3.03, D 3.67, Y 2.91, R 3.1, K 4.03, H 3.77
F14: E 4.56, Q 3.67, L 3.56, R 3.88, G 4.33
E20: M 2.79, H 2.29, T 2.24, A 3.57, L 2.56, R 3.24
K23: R 2.95, V 2.49, Y 2.99, S 3.16, A 3.45, C 3.36
P6: H 3.1, N 3.02
L2: S 4.56, F 3.16, I 2.59, G 4.59, A 3.84, K 2.81, C 3.48, V 2.19, E 4.87

Variants of: B2
Assay: as above
Settings: c terminus: a fixed tail appended

Protein stability index of substitutions, site by site:
T2: C 2.15, Y 2.16, P 3.82, L 1.69, W 2.15, S 2, F 1.71, M 2.14
Q16: F 2.5, H 2.01, G 2.83, W 1.4, C 2.17, P 2.4, E 2.64, N 2.2
N9: Q 1.64, G 2.64, E 3.29, K 1.94, L 1.35, A 2.08, H 1.6
E22: N 2.41, K 2.37, W 1.88, R 2.15, P 2.34, D 1.85, T 2.33
I23: N 3.24, R 2.91, F 2.43, P 2.97, T 2.83, G 3.05, W 2.12, A 2.99, C 2.11
W11: K 4.75, R 4.47, Y 3.5, D 4.47, P 3.97, S 3.93, F 3.15
Q20: M 2.27, H 2.86, P 2.06, K 2.28
A5: I 1.68, M 2.71, S 2.75, N 3.18, G 3.53, T 2.57, Y 2.18, C 2.51, Q 2.85, H 3.47
S14: Y 2.23, F 2.56, D 3.26, Q 2.76, K 2.09, W 2.07
K24: G 2.29, E 3.06, Y 2.46, L 1.76, D 2.83, Q 2.44
D12: H 2.73, M 2.93, Y 1.4, P 3.31, V 3.8
Q4: P 3.21, W 1.72, Y 2.42, K 1.5, L 2.35
F10: G 3.25, M 4.03, P 3.65, V 3.68, T 3.89, W 2.77, K 3.72, C 3.52
E7: V 2.88, Y 2.26, H 2.32, I 1.92, P 2.79, G 2.7, C 1.77
D18: H 2.2, Y 1.97, M 2.19, W 1.83, G 2.56, F 2.14, Q 2.34, E 2.7
P15: D 3.03, Q 2.08, K 2.43, N 2.6
Q21: E 2.56, P 2.66, S 3.13, G 2.62, I 1.73, Y 2.61
L17: E 2.9, H 3.32, T 2.31, C 2.58, I 2.25, K 2.84, Q 3.18, P 2.9, G 3.22, R 3.23
Y6: I 2.67, K 3.06, L 2.98, N 2.93, E 3.19, M 3.17, T 2.83
P13: K 3.44, L 3.3, E 3.17, V 2.04, C 2.31
M3: N 2.34, W 2.77, C 1.97, E 3.89, Q 3.07
W1: S 4.51, C 2.3, M 3.77, A 3.77, Q 4.81, P 4.6, D 5.58
R8: P 3.77, A 2.52, F 2.54, S 3.21, L 2.42, G 2.59, K 2.86, N 3.41
T19: W 2.22, H 2.74, D 2.19, Q 2.55, P 2.21, V 2.35, M 2.35, N 2.96, A 2.73
